Reference: patent publication US20040147432A1 (MERCK, published 2004)
Where two headings read alike, the source gives them in different places. Bridges are numbered along the chain shown (N, C = ends). Where no end group is shown, it is not given here.

Key:
[1] = biological target: T1, human melanin concentrating hormone type 2 receptor (MCH-2R) (human, UniProt Q969V1 1-340); assay: SPA competition with [125I]-human MCH (Phe13, Tyr19) on receptor membranes
T1 construct: also called MCH-R2
Method: (§1) For the SPA-based assay, WGA-PVT beads (NEN Life Sciences Products) were resuspended in Dulbecco's PBS with calcium and magnesium (500 mg beads in 4 ml PBS). […] The suspension was mixed gently for 20 minutes, 12.3 ml of assay buffer and protease inhibitors were added (final concentration given): 2 μg/ml leupeptin, 10 μM phosphoramidon, 40 μg/ml bacitracin, 5 μg/ml aprotinin, 0.1 mM Pefabloc.
(§2) Coated beads were kept on ice until use. […] Binding reactions were allowed to proceed at room temperature for 3 hours. Quantitation was performed by scintillation counting (TopCount device).

[2] = biological target: T1, human melanin concentrating hormone …; assay: cell-based or functional assay
[3] = biological target: T2, human MCH-1R (human, UniProt Q99705 1-353); assay: cell-based or functional assay
T2 sequence (Q99705 whole entry, form in doubt): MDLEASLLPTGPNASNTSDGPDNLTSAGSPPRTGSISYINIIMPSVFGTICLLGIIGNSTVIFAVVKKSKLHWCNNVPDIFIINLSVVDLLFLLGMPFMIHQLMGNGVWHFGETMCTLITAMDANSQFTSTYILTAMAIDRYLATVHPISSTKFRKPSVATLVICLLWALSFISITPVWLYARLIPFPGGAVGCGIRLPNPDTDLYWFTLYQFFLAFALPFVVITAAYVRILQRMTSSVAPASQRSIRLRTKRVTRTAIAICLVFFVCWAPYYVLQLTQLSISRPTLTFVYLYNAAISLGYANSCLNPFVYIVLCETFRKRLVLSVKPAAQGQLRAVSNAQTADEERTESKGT

[4] = biological target: T1, human melanin concentrating hormone …; assay: SPA competition with [125I]-human MCH (Phe13, Tyr19) on receptor membranes; remark: listed apart in the source
[5] = biological target: T1, human melanin concentrating hormone …; assay: cell-based or functional assay; remark: listed apart in the source
[6] = biological target: T2, human MCH-1R; assay: cell-based or functional assay; remark: listed apart in the source
[7] = biological target: T1, human melanin concentrating hormone …; assay: SPA competition with [125I]-human MCH (Phe13, Tyr19) on receptor membranes; remark: listed apart in the source
Method: as §1, §2

[8] = biological target: T1, human melanin concentrating hormone …; assay: cell-based or functional assay; remark: listed apart in the source
[9] = biological target: T2, human MCH-1R; assay: cell-based or functional assay; remark: listed apart in the source
[10] = biological target: T2, human MCH-1R; assay: SPA competition with [125I]-human MCH (Phe13, Tyr19) on receptor membranes
[11] = biological target: T2, human MCH-1R; assay: as above; remark: listed apart in the source
Method: as §1, §2

T1 sequence (Q969V1 whole entry, form in doubt): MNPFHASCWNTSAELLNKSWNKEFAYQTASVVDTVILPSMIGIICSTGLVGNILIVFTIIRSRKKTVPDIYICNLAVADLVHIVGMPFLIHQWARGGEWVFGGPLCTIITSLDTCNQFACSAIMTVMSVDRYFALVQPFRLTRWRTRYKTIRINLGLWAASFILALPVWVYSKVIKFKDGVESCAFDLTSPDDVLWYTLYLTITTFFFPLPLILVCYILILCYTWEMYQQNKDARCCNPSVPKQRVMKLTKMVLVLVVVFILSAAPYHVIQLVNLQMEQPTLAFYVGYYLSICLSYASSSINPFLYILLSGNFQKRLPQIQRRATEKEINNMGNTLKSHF

Binder	IC50 [1] [nM]	Activation % at 10 µM (aequorin functional assay) [2] [%]	EC50 (aequorin functional assay) [2] [nM]	Activation % at 10 µM (aequorin functional assay) [3] [%]	IC50 [4] [nM]	Activation % at 10 µM (aequorin functional assay) [5] [%]	EC50 (aequorin functional assay) [5] [nM]	Activation % at 10 µM (aequorin functional assay) [6] [%]	IC50 [7] [nM]	Activation % at 10 µM (aequorin functional assay) [8] [%]	EC50 (aequorin functional assay) [8] [nM]	Activation % at 10 µM (aequorin functional assay) [9] [%]	IC50 [10] [nM]	EC50 (aequorin functional assay) [6] [nM]	IC50 [11] [nM]	EC50 (aequorin functional assay) [9] [nM]
DFDMLRCMLGRVYRPCWQV (ligand, disulfide 7-16 (inferred), cyclic 19-amino acid peptide; also called hMCH; mammalian MCH) [human MCH (melanin-concentrating hormone), SEQ. ID. NO. 1]	0.9	100	44.7	100	0.5	100	30.7	100	0.5	100	30.7	100				
Ac-RCMLGRVYRPC-NH2 (disulfide 2-11 (inferred), positions numbered 6-16 as in hMCH) [truncated form of human MCH, SEQ. ID. NO. 2]					2			99	2			99	1.4	20	0.5	20
